Data taken from patent US20220204583A1 (published 2022).
Changes are numbered by the printed parent chain. Values belong to the binder of their own block, whether it stands above or below them.

Molecular target: MBECs (cultured cells)
Experiment: equilibrium titration on cultured MBECs; apparent affinity

Kd: 0.0682 µM
B1: VLR-Fc-46 (Fc fusion)
chain: ACPSQCSCSGTTVDCSGKSLASVPTGIPTTTRWLHLHRNQLTKLEPGVFDSLTQLTYLNLGGNQLTALPVGVFDKLTNLKELKLYSNQLQALSEGLFDRLGKLQHLDLSKNQLKSIPHGAFDRLSSLTHAYLFGNPWDCECRDIMYLRNWVADHTSIVMRWDGKAVNDPDSAKCAGTNTPVRAVTEASTSPSKCPGYVAT

Kd: 0.0054 µM
B2: VLR-Fc-30 (Fc fusion)
chain: B1 chain with R32Q, W33I, H35R, H37Y, L41I

Kd: 0.0104 µM
B3: VLR-Fc-11 (Fc fusion)
chain: B1 chain with T12E, D14R, S16E, G17S, K18R, T25A, W33R
